Measurements taken from patent US20100266609A1 (UCB, published 2010).

Key:
[1] = target: T1, Recombinant IL-17A/F heterodimer (human); test: SPR (Biacore 3000, 25°C), antibody captured by anti-mouse IgG Fc, cytokine titrated from 25 nM
T1 construct: also called human recombinant IL-17A/F heterodimer; heterodimer A/F
Experimental: All experiments were performed at 25° C.
Double referenced background subtracted binding curves were analysed using the BIAevaluation software (version 3.2) following standard procedures. Kinetic parameters were determined from the fitting algorithm.

IL-17 E = target: T2, IL-17 E (UniProt Q9H293 33-177, limits assumed); test: SPR (Biacore 3000), antibody captured by anti-human IgG Fc, cytokine in solution
T2 sequence (looked up): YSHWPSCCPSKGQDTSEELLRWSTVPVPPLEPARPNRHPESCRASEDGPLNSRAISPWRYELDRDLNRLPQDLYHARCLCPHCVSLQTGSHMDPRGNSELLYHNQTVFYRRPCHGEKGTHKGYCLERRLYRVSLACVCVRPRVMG
Experimental: (§1) BIA (Biamolecular Interaction Analysis) was performed using a Biacore 3000 (Biacore AB). All experiments were performed at 25° C. Affinipure Fc Fragment goat anti-human IgG, Fc fragment specific (Jackson ImmunoResearch) was immobilised on a CM5 Sensor Chip via amine coupling chemistry to a capture level of ≈6000 response units (RUs). HSS-EP buffer (10 mM HEPES pH 7.4, 0.15 M NaCl, 3 mM EDTA, 0.005% Surfactant P20, Biacore AB) was used as the running buffer with a flow rate of 10 μl/min. […] The surface was regenerated by a 30 μL injections of 40 mM HCl, followed by one 5 μL injection of 5 mM NaOH.
(§2) Background subtraction binding curves were double referenced and analysed using the BIAevaluation software (version 3.2) following standard procedures. Kinetic parameters were determined from the fitting algorithm.

IL-17 B = target: T3, IL-17 B (UniProt Q9UHF5 21-180, limits assumed); test: as above
T3 sequence (looked up): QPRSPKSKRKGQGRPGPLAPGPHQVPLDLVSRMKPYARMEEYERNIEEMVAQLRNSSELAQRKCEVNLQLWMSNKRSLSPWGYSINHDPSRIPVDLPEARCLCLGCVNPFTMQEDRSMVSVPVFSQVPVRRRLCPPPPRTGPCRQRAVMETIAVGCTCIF
Experimental: as §1, §2

IL-17 C = target: T4, IL-17 C (UniProt Q9P0M4 19-197, limits assumed); test: as above
T4 sequence (looked up): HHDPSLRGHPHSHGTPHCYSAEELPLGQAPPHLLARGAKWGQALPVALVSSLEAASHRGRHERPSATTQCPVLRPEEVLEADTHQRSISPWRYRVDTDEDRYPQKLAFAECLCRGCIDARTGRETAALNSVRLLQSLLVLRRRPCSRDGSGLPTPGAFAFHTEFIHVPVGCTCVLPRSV
Experimental: as §1, §2

IL-17 D = target: T5, IL-17 D (UniProt Q8TAD2 18-202, limits assumed); test: as above
T5 sequence (looked up): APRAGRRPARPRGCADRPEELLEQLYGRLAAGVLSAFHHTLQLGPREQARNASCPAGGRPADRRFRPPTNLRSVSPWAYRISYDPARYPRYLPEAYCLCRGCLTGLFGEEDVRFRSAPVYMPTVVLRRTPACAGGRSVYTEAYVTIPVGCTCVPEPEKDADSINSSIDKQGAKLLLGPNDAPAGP
Experimental: as §1, §2

T1 sequence (chain, as listed by the source limits assumed): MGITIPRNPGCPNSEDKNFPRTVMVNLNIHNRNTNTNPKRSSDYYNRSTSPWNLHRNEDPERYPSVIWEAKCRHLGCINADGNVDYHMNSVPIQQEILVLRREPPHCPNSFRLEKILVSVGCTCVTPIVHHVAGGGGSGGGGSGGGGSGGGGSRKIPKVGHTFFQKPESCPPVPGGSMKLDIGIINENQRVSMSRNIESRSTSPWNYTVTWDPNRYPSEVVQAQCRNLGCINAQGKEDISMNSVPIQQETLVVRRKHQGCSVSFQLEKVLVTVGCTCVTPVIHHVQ

Row | Binder | Kd [1] | binding result (IL-17 E) | binding result (IL-17 B) | binding result (IL-17 C) | binding result (IL-17 D)
1 | Antibody CA028-0496 (murine IgG1 constant regions) (antibody, V domains shown, not shown: murine IgG1 heavy chain constant region; murine light chain constant region) VH: EVQLVESGGGLVQPGGSLRLSCAASGFTFSDYNMAWVRQAPGKGLEWVATITYEGRNTYYRDSVKGRFTISRDNAKNSLYLQMNSLRAEDTAVYYCASPPQYYEGSIYRLWFAHWGQGTLVTVSS VL: AIQLTQSPSSLSASVGDRVTITCRADESVTTLMHWYQQKPGKAPKLLIYLVSNRESGVPSRFSGSGSGTDFTLTISSLQPEDFATYYCQQTWSDPWTFGQGTKVEIKR | 0.116 nM | – | – | – | –
2 | Antibody CA028-0496 (human IgG4 constant regions) (antibody, V domains shown, human gamma-4 constant region with the hinge mutation S241P and human C-kappa (Km3), made in CHO cells) VH: EVQLVESGGGLVQPGGSLRLSCAASGFTFSDYNMAWVRQAPGKGLEWVATITYEGRNTYYRDSVKGRFTISRDNAKNSLYLQMNSLRAEDTAVYYCASPPQYYEGSIYRLWFAHWGQGTLVTVSS VL: AIQLTQSPSSLSASVGDRVTITCRADESVTTLMHWYQQKPGKAPKLLIYLVSNRESGVPSRFSGSGSGTDFTLTISSLQPEDFATYYCQQTWSDPWTFGQGTKVEIKR | – | no binding (tested: doubling dilutions from 50 nM to sub nM) | no binding (tested: doubling dilutions from 50 nM to sub nM) | no binding (tested: doubling dilutions from 50 nM to sub nM) | no binding (tested: doubling dilutions from 50 nM to sub nM)
